Data published in the supplement of paper PMC10567573.

B1: PTPRD (parent)
chain: FICQATGDPRPKIVWNKKGKKVSN
B2: KRT13 (parent)
chain: TPGIDLTRVLAEMREQYEAMAERN

Variants of: B1
Assay: protein stability index of a GFP-peptide fusion (GPS, HEK-293T) (PSI 1-6); higher = more stable
Settings: c terminus: a fixed tail appended
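Further: lentivirally expressed fusions sorted by FACS into six bins by GFP to DsRed ratio, PSI derived from sequencing read proportions per bin multiplied by bin number.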

Protein stability index of substitutions, site by site:
T6: L 1.47, Q 2.17, P 1.96, F 1.68, E 2.05, I 1.61, K 2.02, A 1.92, S 2.94, M 1.65, R 2, V 1.91, D 1.71, G 2.18, N 1.78, C 2.81, Y 2.24, H 1.68
G7: L 2.19, E 2.81, R 1.92, V 1.81, N 1.97, F 2.69, D 1.93, W 3.96, A 2.15, P 2.32, C 1.87, T 2.01, K 2.39, S 2.02, Y 1.7, H 2.16, M 1.9, Q 2.22, I 2.01
C3: N 1.88, G 2.2, R 2.06, F 1.92, E 3.04, H 2.56, A 2.55, K 2.57, D 2.85, S 1.92, I 2.38, L 1.86, P 3.54, W 1.97, M 1.75, T 1.98, Y 1.15, V 2.31, Q 2.05
D8: N 2.16, M 1.8, S 1.92, H 1.6, Q 1.77, T 2.11, P 1.8, C 1.94, E 1.91, A 2.04, L 1.5, I 2.33, K 2.5, Y 1.45, R 2.24, F 1.85, G 1.98
R10: M 2.58, C 1.84, K 2.95, P 2.41, T 2, V 1.88, I 2.08, F 1.89, L 1.83, E 1.61, Q 2.06, N 1.83, D 1.82, H 1.79, S 1.81, A 1.98
F1: M 2.92, S 3.3, K 3.12, A 3.28, E 3.2, V 2.75, H 3.71, I 2.35, G 4.53, N 3.89, C 3.2, Y 2.26, R 3.66, P 3.76, Q 3.42, D 3.65, L 2.15, T 3.08, W 2.23
Q4: F 2.25, E 2.18, V 2.08, C 1.8, T 3.05, P 2.14, M 1.29, I 1.84, L 2.17, W 2.95, G 1.88, N 2.03, K 2.42, A 1.61, Y 1.37, S 1.58, D 1.87, R 1.56, H 2.33
P9: W 1.53, E 1.99, M 2.36, Q 1.83, A 1.84, G 1.4, Y 1.53, F 1.99, C 1.49, T 1.88, H 2.29, S 2, V 2.27, L 2.49, I 2.21, D 2.14, K 1.54, N 2.31
A5: P 2.04, W 2.35, R 2.24, Q 1.95, Y 2.25, G 2.07, E 1.92, H 2.2, I 1.77, N 2.09, C 2.12, T 2.08, K 3.03, V 2.26, S 1.83, M 2.02, F 2.19, L 2.01, D 2.39
I2: S 3.75, T 3.58, Y 3.01, K 3.47, D 4.73, A 2.67, W 2.95, L 2.59, P 3.89, R 3.57, N 4.27, Q 2.83, V 2.34, F 3.85, G 4.1, H 1.55, E 4.52, C 2.29, M 3.44
P11: A 2.34, C 1.32

Variants of: B2
Assay: as above
Settings: c terminus: a fixed tail appended

Protein stability index of substitutions, site by site:
A19: I 3.73, T 4.16, L 2.92, H 3.71, Y 3.76, R 3.57, V 3.23, K 3.53, W 3.4, Q 3.48, N 4.28, C 3.99, P 4.08, D 4.08, G 4.22, F 4.13, M 3.54, S 4.53
E22: F 2.98, M 4.03, D 4.66, G 4.02, L 4.4, K 4.39, P 3.98, N 4.04, S 3.52, Y 3, V 2.56, A 4.08, I 2.79, H 3.73, T 3.87, C 3.7, W 2.86
E18: I 3.98, A 4.23, N 3.5, S 3.96, V 4.39, P 2.72, Q 3.13, G 3.88, C 2.93, H 3.44, K 3.84, Y 3.87, F 2.84, R 3.47, T 3.06, W 3.62, M 3.72, D 4.27
A21: H 4.07, Y 4.5, F 3.98, S 4.65, V 3.55, Q 4.54, P 4.93, I 4.27, D 4.91, M 4.09, L 4.39, C 4.29, R 4.18, G 2.79, K 3.94
R23: D 4.84, A 3.9, H 4.21, C 4.43, S 4.56, W 2.83, N 4.59, M 3.27, I 2.94, E 4.9, V 3.01, P 4.62, Y 3.61, K 4.03, Q 4.39, T 4.08, L 3.34, G 3.98, F 3.78
M20: T 4.25, K 4.81, W 5.32, L 3.74, V 3.09, F 3.42, C 4.1, D 4.79, G 4.22, E 4.49, N 3.18, Y 4.62, R 4.68, I 3.88, H 4.32, A 4.74, Q 4.13, P 4.81
N24: F 4, Q 4.23, L 4.83, S 4.51, Y 3.8, G 4.87, W 4.55, H 4.79, E 4.51, A 3.56, I 4.63, C 3.08, P 4.07, K 3.27, T 4.22, M 4.67, D 5.03
Y17: H 4.76, E 4.6, W 5.02, D 5.4, R 4.75, C 4.23, G 6, T 5.8, K 5.5, A 5.29, N 4.56, V 4.29, M 4.3
Q16: V 3.82, F 3.21, S 3.17, N 3.8, Y 4.01, H 3.31, L 2.94, W 3.73, E 3.97, I 3.38, R 4.84, K 4.78, T 3.39, P 4.08
